Source: patent US20220380768A1 (TALLAC THERAPEUTICS, published 2022)

Tests used:
[1] = molecular target: T1, cynomolgus monkey CD22 on B cells of cynomolgus PBMCs (cynomolgus monkey); test: flow cytometry; Alexa Fluor 647-labelled antibody, cynomolgus PBMCs
T1 construct: whole, on cells; also called cynomolgus CD22; Cyno CD22
Procedure: (§1) Binding of humanized anti-CD22 antibodies to human or cynomolgus PBMCs was measured by flow cytometry. Trima residuals were received from Vitalant and cynomolgus monkey whole blood were received from BioIVT. Both were diluted 1:4 with Phosphate Buffered Saline (PBS, Gibco). Diluted blood was split into two tubes and underplayed with 15 mL Ficoll-Paque (GE Healthcare). Tubes were centrifuged for 30 minutes at 400×g. PBMCs were collected from the interface, washed and resuspended in FACS buffer (PBS with 0.5% Bovine Serum Albumin (Gibco)). 100K PBMCs from human and cynomolgus monkey were plated in 96-well plates and pelleted by centrifugation for five minutes at 400×g and stained at 4° C. in 100 μl Fixable Viability Dye eFluor 780 (Thermo Fisher) diluted 1:4000 in PBS. Cells were centrifuged and stained at 4° C. in 100 μl FACS buffer for 30 minutes containing FcR Blocking Reagent (Miltenyi Biotec), anti-CD20 and Alexa Fluor 647 conjugated CD22 binding antibodies, which were labeled using Molecular Probes Alexa Fluor 647 Protein Labeling kit (Molecular Probes) according to manufacturer's protocol. Cells were centrifuged and washed twice in 200 μl FACS buffer and fixed in 100 μl 0.5% paraformaldehyde. Cells were analyzed on Attune NxT Flow Cytometer (Thermo Fisher), with subsequent data analysis by Flowjo 10.7 (Treestar). Dead cells were excluded by gating on the eFluor 780-negative population. CD20+ cells were gated to identify B cells and median fluorescent intensity for CD22 was determined.
(§2) The fold increase in binding was determined by calculating the ratio of CD22 median fluorescent intensity on CD20⁺ over CD20⁻ cells.

[2] = molecular target: T2, human CD22 (d1 to d7 domain according to NP_001762.2) (human, UniProt P20273 20-687); test: SPR; summary table, column 'CD22 KD (nM)'
T2 construct: domain: d1 to d7 domain; also called human CD22-gly; Siglec-2

[3] = molecular target: T3, human CD22 on B cells of human PBMCs (human, UniProt P20273 20-847); test: flow cytometry; Alexa Fluor 647-labelled antibody on CD20+ B cells of human PBMCs
T3 construct: whole, on cells; also called CD22 on human B cells
Procedure: as §1

[4] = molecular target: T3, human CD22 on B cells of human PBMCs; test: flow cytometry; Alexa Fluor 647-labelled antibody, human PBMCs
Procedure: as §1, §2

[5] = molecular target: T2, human CD22 (d1 to d7 domain according …); test: SPR; mAb supernatant captured on protein A chip, human CD22 injected
Procedure: Binding of humanized anti-CD22 antibodies to human CD22 was measured by surface plasmon resonance (SPR). For assessment of binding by SPR, biotinylated protein A (15 μg/mL) was immobilized to the surface of an NLC chip. 30 μL of mAb supernatant was added to 150 μL of PBS-T and captured over the protein A surface. Serial dilutions of human CD22-gly (300 nM, 3× dilution) were injected over the mAb-coated chips, and binding kinetics were determined. Chips were regenerated using 4:1 v/v of Pierce IgG elution butter/4M NaCl.

[6] = molecular target: T1, cynomolgus monkey CD22 on B cells of …; test: flow cytometry; Alexa Fluor 647-labelled antibody on CD20+ B cells of cynomolgus PBMCs
Procedure: as §1

Binder	CD22: CD20+/CD20- (ratio of median fluorescent intensity) [1]	Kd [2]	CD22 Median Fluorescent Intensity on CD20+ cells [3]	CD22: CD20+/CD20- (ratio of median fluorescent intensity) [4]	Kd [5]	koff [5]	kon [5]	CD22 Median Fluorescent Intensity on CD20+ cells [6]
TNT69 (antibody, human IgG1, kappa, V domains shown) VH: EVQLVESGGGLVQPGGSLRLSCAASGFAFSIYDMSWVRQAPGKGLEWVAYISSGGGTTYYPDTVKGRFTISRDNSKNTLYLQMNSLRAEDTAVYYCARHSGYGTHWGVLFAYWGRGTLVTVSS VL: DIQMTQSPSSLSASVGDRVTITCRASQDIHGYLNWYQQKPGKAPKLLIYYTSILHSGVPSRFSGSGSGTDFTLTISSLQPEDFATYFCQQGNTLPWTFGQGTKLEIKR	14.9 fold	0.6 nM	1610	25.4 fold	0.624 nM	0.000126 s⁻¹	201000 M⁻¹ s⁻¹	1410
TNT86 (antibody, human IgG1, kappa, V domains shown) VH: QVQLLESGGGVVQPGGSLRLSCAASGFAFSIYDMNWVRQAPGKGLEWVSAISSGGGTTYYADSVKGRFTISRDNAKNSLYLQMNSLRAEDTAVYYCARHSGYGTHWGVLFAYWGRGTLVTVSS VL: DIVMTQTPLSLSVTPGQPASISCRASQDIHGYLNWYQQKPGQSPQLLIYYTSILHSGVPDRFSGSGSGTDFTLKISRVEAEDVGVYFCQQGNTLPWTFGGGTKLEIKR	10.9 fold	1.1 nM	1570	23.9 fold	1.09 nM	0.000141 s⁻¹	130000 M⁻¹ s⁻¹	1430
TNT77 (antibody, human IgG1, kappa, V domains shown) VH: EVQLVESGGGLVQPGGSLRLSCAASGFAFSIYDMSWVRQAPGKGLEWVAYISSGGGTTYYPDTVKGRFTISRDNSKNTLYLQMNSLRAEDTAVYYCARHSGYGTHWGVLFAYWGRGTLVTVSS VL: DIQMTQSPSSLSASVGDRVTITCRASQSISSYLNWYQQKPGKAPKLLIYAASSLQSGVPSRFSGSGSGTDFTLTISSLQPEDFATYYCQQGNTLPWTFGQGTKLEIKR	2.6 fold	10 nM	1320	20.9 fold	10.2 nM	0.00207 s⁻¹	203000 M⁻¹ s⁻¹	236
TNT82 (antibody, human IgG1, kappa, V domains shown) VH: QVQLLESGGGVVQPGGSLRLSCAASGFAFSIYDMNWVRQAPGKGLEWVSAISSGGGTTYYADSVKGRFTISRDNAKNSLYLQMNSLRAEDTAVYYCARHSGYGTHWGVLFAYWGRGTLVTVSS VL: EIVLTQSPATLSLSPGERATLSCRASQDIHGYLNWYQQKPGQAPRLLIYYTSILHSGIPARFSGSGPGTDFTLTISSLEPEDFAVYYCQQGNTLPWTFGGGTKLEIKR	12.6 fold	0.9 nM	1520	23.9 fold	0.937 nM	0.000156 s⁻¹	167000 M⁻¹ s⁻¹	1170
TNT73 (antibody, human IgG1, kappa, V domains shown) VH: EVQLVESGGGLVQPGGSLRLSCAASGFAFSIYDMSWVRQAPGKGLEWVAYISSGGGTTYYPDTVKGRFTISRDNSKNTLYLQMNSLRAEDTAVYYCARHSGYGTHWGVLFAYWGRGTLVTVSS VL: DIQMTQSPSSVSASVGDRVTITCRASQDIHGYLAWYQQKPGKAPKLLIYYTSSLQSGVPSRFSGSGSGTDFTLTISSLQPEDFATYYCQQGNTLPWTFGQGTKLEIKR	1.9 fold	14 nM	1410	19.9 fold	14.5 nM	0.0023 s⁻¹	158000 M⁻¹ s⁻¹	216
TNT85 (antibody, human IgG1, kappa, V domains shown) VH: EVQLVESGGGLVQPGGSLRLSCAASGFAFSIYDMSWVRQAPGKGLEWVAYISSGGGTTYYPDTVKGRFTISRDNSKNTLYLQMNSLRAEDTAVYYCARHSGYGTHWGVLFAYWGRGTLVTVSS VL: DIVMTQTPLSLSVTPGQPASISCRASQDIHGYLNWYQQKPGQSPQLLIYYTSILHSGVPDRFSGSGSGTDFTLKISRVEAEDVGVYFCQQGNTLPWTFGGGTKLEIKR	9.6 fold	1.3 nM	1580	23.1 fold	1.25 nM	0.000169 s⁻¹	135000 M⁻¹ s⁻¹	1380
TNT83 (antibody, human IgG1, kappa, V domains shown) VH: EVQLVESGGGLVQPGGSLRLSCAASGFTFSSYEMNWVRQAPGKGLEWVSYISSSGSTIYYADSVKGRFTISRDNAKNSLYLQMNSLRAEDTAVYYCARHSGYGTHWGVLFAYWGRGTLVTVSS VL: EIVLTQSPATLSLSPGERATLSCRASQDIHGYLNWYQQKPGQAPRLLIYYTSILHSGIPARFSGSGPGTDFTLTISSLEPEDFAVYYCQQGNTLPWTFGGGTKLEIKR	10.8 fold	6 nM	1490	23 fold	5.94 nM	0.0016 s⁻¹	269000 M⁻¹ s⁻¹	1400
TNT75 (antibody, human IgG1, kappa, V domains shown) VH: EVQLVESGGGLVQPGGSLRLSCAASGFTFSSYEMNWVRQAPGKGLEWVSYISSSGSTIYYADSVKGRFTISRDNAKNSLYLQMNSLRAEDTAVYYCARHSGYGTHWGVLFAYWGRGTLVTVSS VL: DIQMTQSPSSVSASVGDRVTITCRASQDIHGYLAWYQQKPGKAPKLLIYYTSSLQSGVPSRFSGSGSGTDFTLTISSLQPEDFATYYCQQGNTLPWTFGQGTKLEIKR	6.7 fold	30 nM	1630	26.7 fold	30 nM	0.0084 s⁻¹	280000 M⁻¹ s⁻¹	588
TNT78 (antibody, human IgG1, kappa, V domains shown) VH: QVQLLESGGGVVQPGGSLRLSCAASGFAFSIYDMNWVRQAPGKGLEWVSAISSGGGTTYYADSVKGRFTISRDNAKNSLYLQMNSLRAEDTAVYYCARHSGYGTHWGVLFAYWGRGTLVTVSS VL: DIQMTQSPSSLSASVGDRVTITCRASQSISSYLNWYQQKPGKAPKLLIYAASSLQSGVPSRFSGSGSGTDFTLTISSLQPEDFATYYCQQGNTLPWTFGQGTKLEIKR	1.2 fold	25 nM	1210	19.8 fold	24.9 nM	0.00485 s⁻¹	195000 M⁻¹ s⁻¹	112
TNT88 (antibody, human IgG1, kappa, V domains shown) VH: QVQLQESGPGLVKPSDTLSLTCTVSGFAFSIYDMSWIRQPPGKGLEWIAYISSGGGTTYYNPSLKSRVTISVDTSKNQFSLKLSSVTAADTAVYYCARHSGYGTHWGVLFAYWGRGTLVTVSS VL: DIVMTQTPLSLSVTPGQPASISCRASQDIHGYLNWYQQKPGQSPQLLIYYTSILHSGVPDRFSGSGSGTDFTLKISRVEAEDVGVYFCQQGNTLPWTFGGGTKLEIKR	14.7 fold	1.3 nM	1530	26.2 fold	1.34 nM	0.000289 s⁻¹	215000 M⁻¹ s⁻¹	1270
